A word on the IC50: it is the point on the concentration scale where inhibition reaches its midpoint.

Read-outs that look alike come from different tables or passages of the source.

The target of test [1] is T1, cynomolgus monkey C-KIT-Fc (cynomolgus monkey).
T1 construct: also called cyno C-KIT-Fc
The experiment in a line: HTRF competition vs Tb-h37M IgG1. Background: In TR-FRET formats the signal depends on donor and acceptor labels being close together.
Experimental: Reagents were added sequentially into 384-well low-volume black plates (Nunc).

The target of test [2] is T2, hEpCAM-Fc (human, UniProt P16422).
T2 construct: Fc fusion; member of the panel m9
T2 sequence (looked up): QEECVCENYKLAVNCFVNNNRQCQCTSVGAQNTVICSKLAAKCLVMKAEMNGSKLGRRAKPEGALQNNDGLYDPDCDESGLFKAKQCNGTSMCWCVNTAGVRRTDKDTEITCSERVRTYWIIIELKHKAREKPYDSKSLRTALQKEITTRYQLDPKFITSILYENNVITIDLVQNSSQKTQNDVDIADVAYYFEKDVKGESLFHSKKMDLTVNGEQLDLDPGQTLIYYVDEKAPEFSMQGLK
The experiment in a line: direct ELISA on coated protein, IgG1. For orientation: ELISA stands for enzyme-linked immunosorbent assay.

The target in another test is T3, hBAFFR-Fc (human, UniProt Q96RJ3).
T3 construct: Fc fusion; member of the panel m9
T3 sequence (Q96RJ3 7-71 limits assumed): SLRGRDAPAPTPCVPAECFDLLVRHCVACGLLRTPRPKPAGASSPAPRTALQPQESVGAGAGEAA
The experiment in a line: direct ELISA on coated protein, IgG1.

The target of test [3] is T4, hICAM-1-Fc (human, UniProt P05362).
T4 construct: Fc fusion; member of the panel m9
T4 sequence (P05362 28-480 limits assumed): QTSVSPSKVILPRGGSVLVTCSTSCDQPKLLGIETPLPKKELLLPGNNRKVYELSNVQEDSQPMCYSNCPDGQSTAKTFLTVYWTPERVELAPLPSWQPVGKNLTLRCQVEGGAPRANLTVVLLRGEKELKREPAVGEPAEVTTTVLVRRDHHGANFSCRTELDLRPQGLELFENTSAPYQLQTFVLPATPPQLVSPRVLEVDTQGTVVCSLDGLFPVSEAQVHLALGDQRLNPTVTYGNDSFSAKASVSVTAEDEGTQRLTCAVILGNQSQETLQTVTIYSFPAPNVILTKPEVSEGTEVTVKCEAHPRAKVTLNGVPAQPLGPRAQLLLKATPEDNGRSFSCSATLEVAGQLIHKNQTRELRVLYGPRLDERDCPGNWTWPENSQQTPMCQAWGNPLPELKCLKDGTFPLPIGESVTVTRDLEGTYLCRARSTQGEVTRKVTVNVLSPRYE
The test can be described thus: direct ELISA on coated protein, IgG1.

For test [4], the target named is T5, hCMET-Fc (The natural ectodomain is cleaved by furin after residue 307 into disulfide-linked alpha and beta chains. It is given here as one continuous stretch.).
T5 construct: member of the panel m9
T5 chain: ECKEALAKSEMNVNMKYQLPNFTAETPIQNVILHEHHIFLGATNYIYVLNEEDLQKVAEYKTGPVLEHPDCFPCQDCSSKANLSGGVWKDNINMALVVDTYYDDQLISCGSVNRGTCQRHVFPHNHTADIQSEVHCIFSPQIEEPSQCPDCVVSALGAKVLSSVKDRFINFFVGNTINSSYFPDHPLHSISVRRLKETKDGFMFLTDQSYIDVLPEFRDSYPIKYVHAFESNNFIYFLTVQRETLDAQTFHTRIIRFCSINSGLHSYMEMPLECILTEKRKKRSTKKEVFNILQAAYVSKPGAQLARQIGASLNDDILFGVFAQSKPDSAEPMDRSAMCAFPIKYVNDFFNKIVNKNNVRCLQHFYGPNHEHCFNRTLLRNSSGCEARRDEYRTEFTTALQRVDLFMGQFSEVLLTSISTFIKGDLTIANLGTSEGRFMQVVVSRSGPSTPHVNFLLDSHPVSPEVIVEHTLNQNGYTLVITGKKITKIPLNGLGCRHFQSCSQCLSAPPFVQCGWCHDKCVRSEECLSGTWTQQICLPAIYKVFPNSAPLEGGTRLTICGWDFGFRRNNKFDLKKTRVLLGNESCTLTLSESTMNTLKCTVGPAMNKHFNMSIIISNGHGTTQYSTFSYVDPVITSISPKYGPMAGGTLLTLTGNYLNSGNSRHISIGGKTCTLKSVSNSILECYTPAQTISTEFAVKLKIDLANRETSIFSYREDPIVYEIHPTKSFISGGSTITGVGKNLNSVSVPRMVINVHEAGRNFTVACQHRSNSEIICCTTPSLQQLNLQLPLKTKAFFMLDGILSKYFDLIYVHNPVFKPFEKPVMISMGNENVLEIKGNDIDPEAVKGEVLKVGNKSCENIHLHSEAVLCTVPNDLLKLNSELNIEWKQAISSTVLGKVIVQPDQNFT
The experiment in a line: direct ELISA on coated protein, IgG1.

The target of another test is T6, hTWEAK-Fc (human, UniProt O43508).
T6 construct: Fc fusion; member of the panel m9
T6 sequence (looked up): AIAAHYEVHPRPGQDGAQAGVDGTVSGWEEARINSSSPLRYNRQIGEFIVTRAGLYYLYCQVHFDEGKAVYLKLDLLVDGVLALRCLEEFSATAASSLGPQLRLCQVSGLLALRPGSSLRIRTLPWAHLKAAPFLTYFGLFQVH
The experiment in a line: direct ELISA on coated protein, IgG1.

The target in test [5] is T2, hEpCAM-Fc. The test can be described thus: direct ELISA on coated protein, IgG1. The source holds these as a separate data set.
Test [6] deals with T4, hICAM-1-Fc. The test can be described thus: direct ELISA on coated protein, IgG1. The source holds these as a separate data set.
Another test concerns the target T7, hOX40-Fc.
T7 construct: member of the panel m9
T7 chain: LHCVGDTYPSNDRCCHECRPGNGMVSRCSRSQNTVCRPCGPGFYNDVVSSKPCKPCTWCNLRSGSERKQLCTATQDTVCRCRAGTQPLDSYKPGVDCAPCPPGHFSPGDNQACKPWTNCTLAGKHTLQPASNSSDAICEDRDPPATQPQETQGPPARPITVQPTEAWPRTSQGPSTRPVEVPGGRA
The experiment in a line: direct ELISA on coated protein, IgG1.

For test [7], the target named is T5, hCMET-Fc. The experiment in a line: direct ELISA on coated protein, IgG1.
Another test addresses T8, hVCAM-1 (human, UniProt P19320).
T8 construct: purified recombinant protein; member of the panel m9
T8 sequence (looked up): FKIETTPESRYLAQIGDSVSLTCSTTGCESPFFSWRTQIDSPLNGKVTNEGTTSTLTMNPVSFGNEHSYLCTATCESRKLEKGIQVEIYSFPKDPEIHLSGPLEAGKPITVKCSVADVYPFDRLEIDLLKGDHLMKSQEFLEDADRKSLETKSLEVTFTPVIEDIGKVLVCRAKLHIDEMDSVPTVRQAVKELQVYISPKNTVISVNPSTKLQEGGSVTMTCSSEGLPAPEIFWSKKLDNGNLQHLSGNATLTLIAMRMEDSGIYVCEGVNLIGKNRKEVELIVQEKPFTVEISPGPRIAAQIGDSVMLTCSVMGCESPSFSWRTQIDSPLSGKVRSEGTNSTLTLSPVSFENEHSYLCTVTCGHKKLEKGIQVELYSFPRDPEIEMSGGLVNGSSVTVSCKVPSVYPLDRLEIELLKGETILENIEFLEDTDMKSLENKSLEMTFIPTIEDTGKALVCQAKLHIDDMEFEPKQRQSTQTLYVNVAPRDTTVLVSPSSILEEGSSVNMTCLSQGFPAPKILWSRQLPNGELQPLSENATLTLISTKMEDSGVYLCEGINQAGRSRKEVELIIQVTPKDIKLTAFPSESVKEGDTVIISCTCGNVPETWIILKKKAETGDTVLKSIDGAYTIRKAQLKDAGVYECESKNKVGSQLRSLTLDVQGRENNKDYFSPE
The experiment in a line: direct ELISA on coated protein, IgG1.

B1: MH5, human IgG1 (antibody, V domains shown)
VH: QVQLVQSGAEVKKPGASVKVSCKASGYTFTDYYMNWVRQAPGQGLEWMGRIYPGSGNTYYAQKFQGRVTMTRDTSTSTVYMELSSLRSEDTAVYYCARGVYYYDYWGQGTLVTVSS
VL: DIQMTQSPSSLSASVGDRVTITCRASQGIRTNLAWFQQKPGKAPKSLIYSASSLQSGVPSRFSGSGSGTDFTLTISSLQPEDFATYYCQQYANYPRTFGGGTKVEIK
notes: IgG1; also called C-KIT-MH5; C-KIT-MHS
Consider B1, for which the IC50 in [1] is 0.036 mg/L. Moreover, the binding result with hEpCAM-Fc [2], with hBAFFR-Fc, with hICAM-1-Fc [3] and with hCMET-Fc [4] was “no binding (tested: 1 µg/ml)” in each case.

B2: MH5.22 (antibody, IgG1, V domains shown)
VH: QVQLVQSGAEVKKPGASVKVSCKASGYTFTDFYMNWVRQAPGQGLEWMGRIYPASGNTYYAQKFQGRVTMTRDTSTSTVYMELSSLRSEDTAVYYCARGVWYYDYWGQGTLVTVSS
VL: DIQMTQSPSSLSASVGDRVTITCRASQGIRTNLAWFQQKPGKAPKSLIYAASSLQSGVPSRFSGSGSGTDFTLTISSLQPEDFATYYCQQYANYPRTFGGGTKVEIK
notes: IgG1; also called C-KIT-MH5.22
Regarding B2, the binding result in the test with hTWEAK-Fc, in the test with hEpCAM-Fc [5], in the test with hICAM-1-Fc [6], with hOX40-Fc, with hCMET-Fc [7] and with hVCAM-1 was “no binding (tested: 1 µg/ml)” in each case.
